In series [1] the target is T1, Rv3066 (TetR-family regulator) (Mycobacterium tuberculosis H37Rv) (UniProt I6X658).
T1 sequence: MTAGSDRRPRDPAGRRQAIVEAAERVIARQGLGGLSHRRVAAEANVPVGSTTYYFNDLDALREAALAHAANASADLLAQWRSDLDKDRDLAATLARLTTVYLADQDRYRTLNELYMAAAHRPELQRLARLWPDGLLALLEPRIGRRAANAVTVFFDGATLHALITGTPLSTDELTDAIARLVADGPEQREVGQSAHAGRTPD
Description: DNase I footprinting.

Series [2] deals with Rv3066 regulator, full-length, with a 6xHis tag at the C-terminus (Mycobacterium tuberculosis strain H37Rv) (UniProt I6X658). In words: crystal structure.

For “TCGAGATCTTTCACCATGACACGACGTTACGGGGATCGACCGCGCGAACGCTGGGCGGATTTTGTCTCCCACCGGTGTGCCTACTCACGTGTGGACGCACGAGCCTCCTTTGTGTACATTTGTACACAAAGGAGGGGTCTTGATCTACCTATACCTCTTGTGCGCGATCTTCGCGGAAGTGGTGGCAACCAGCCTGCTCAAAAGCACGGAAGGGTTCACTCGGTTG (double strand) [226-bp mmr promoter probe (IR1, IR2 removed)]”, the binding entry in series [1] is on record as “binds”.
In the case of “Rv3066 regulator, full-length, with a 6xHis tag at the C-terminus (from UniProt I6X658 1-202) (natural protein)”, the stoichiometry N (in general, a count of units in the complex or per binding partner) in series [2] turned out to be 2.

Values taken from PMC3467072.
